Earlier results on 2 substances are cited in patent publication US20230142365A1, “POLY(SARCOSINE) POLYMER EXCIPIENTS” (CALUSA BIO, LLC, priority 2021, published 2023).

The data set deals with anti-drug antibodies (ADAs). The settings on record: share of anti-drug antibodies against the TNF blocker that are neutralizing; van Schie et al. 2015.

For the substance adalimumab, the ADAs neutralizing was 97%.

“infliximab: tumor necrosis factor (TNF) blocker Remicade (infliximab)”: the ADAs neutralizing is 90%.
